Columns and labels:
[1] = target: T1, recombinant human wild-type EGFR protein, denatured (human, UniProt P00533 25-645); experiment: ELISA on coated denatured recombinant antigen; Exp 2, purified mAb 1 µg/ml
T1 construct: Same protein as m11 after denaturation (95 °C for 5 min in PBS with 40 mM DTT); also called EGFRwt Denatured
Protocol: (§1) Pre- and post-immune sera titers of animals were assessed by ELISA on recombinant EGFRvIII protein. Unless otherwise stated, all incubations were performed at room temperature. Briefly, half-area 96-well plates (Costar #3690) were coated with 25 μl per well of immunogen at 5 μg/ml in PBS and incubated overnight at 4° C. Microplates were washed three times in PBS and blocked for 30 min with PBS containing 1% bovine serum albumin (BSA, Sigma Cat#A7030). Blocking buffer was removed and 25 μl of serial dilutions of sera samples were added. After a 2-h incubation, microplates were washed 4 times with PBS-TWEEN™ 20 0.05% and 25 μl of a 1/5,000 dilution of alkaline phosphatase conjugated F(ab′)′₂ goat anti-mouse IgG (H+L, #115-056-062, Jackson Immunoresearch, Cedarlane, Burlington, ON) in blocking buffer was added. After a 1-h incubation, microplates were washed 4 times and 25 μl of p-nitrophenyl phosphate (pNPP) substrate (Sigma-Aldrich Canada Co., Oakville, ON) at 1 mg/ml in carbonate buffer at pH 9.6 was added and further incubated for 30 min. Absorbance was read at 405 nm using a SpectraMax 340 PC plate reader (Molecular Devices, Sunnyvale, Calif.).
(§2) To evaluate if monoclonal antibodies bind to a conformational epitope, an ELISA analysis on native and denatured recombinant human wild-type EGFR and EGFRvIII proteins were performed. […] Antigens at 1-2 mg/ml were denatured by incubation at 95° C. for 5 min in PBS containing DTT at 40 mM final concentration. They were then incubated on ice for 5 min and diluted at their final coating concentration for ELISA purpose.
(§3) mAbs were purified using HiTrap ProteinG HP 1 mL columns GE Healthcare cat no. 17-0404-01 and desalted using Zeba-spin desalting columns 5 mL (Pierce) pre-equilibrated in PBS and filter sterilized through […] membrane (Millipore). The final concentration of the antibody solutions was determined using a Nano-drop 2000 (ThermoScientific), using IgG as sample type. ELISA was performed as described above (serum titer determination) using 25 μl of mAb supernatant (Exp 1) or purified mAb at 1 μg/ml (Exp 2).

[2] = target: T2, recombinant human EGFRvIII protein, denatured (human, UniProt P00533 298-623); experiment: as above
T2 construct: Same protein as m9 after denaturation (95 °C for 5 min in PBS with 40 mM DTT); also called EGFRvIII Denatured
Protocol: as §1, §2, §3

[3] = target: T3, recombinant human EGFRvIII protein, native (human, UniProt P00533 298-623); experiment: ELISA on coated native recombinant antigen; Exp 1, mAb supernatant
T3 construct: Recombinant extracellular domain used as immunogen and ELISA coat; also called EGFRvIII Native
Protocol: as §1, §2, §3

[4] = target: T4, recombinant human wild-type EGFR protein, native (human, UniProt P00533 25-645); experiment: as above
T4 construct: Recombinant protein used as ELISA coat; also called EGFRwt; wt EGFR
Protocol: as §1, §2, §3

[5] = target: T3, recombinant human EGFRvIII protein, …; experiment: ELISA on coated native recombinant antigen; Exp 2, purified mAb 1 µg/ml
Protocol: as §1, §2, §3

[6] = target: T4, recombinant human wild-type EGFR …; experiment: as above
Protocol: as §1, §2, §3

[7] = target: T1, recombinant human wild-type EGFR …; experiment: ELISA on coated denatured recombinant antigen; Exp 1, mAb supernatant
Protocol: as §1, §2, §3

[8] = target: T2, recombinant human EGFRvIII protein, …; experiment: as above
Protocol: as §1, §2, §3

[9] = target: T5, EGFRvIII amino acid residues 15 to 37 with Val17 to Ala mutation, yeast-displayed (human, not fully specified); experiment: flow cytometry on yeast displaying the Ala-mutated 15-37 fragment; normalized to Myc-tag; wild-type fragment = 100%
T5 construct: The entry already carries the mutation
T5 peptide: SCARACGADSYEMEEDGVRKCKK
From the text: (§4) Assessment of the binding of anti-EGFRvIII monoclonal antibodies to the fusion proteins expressed on yeast cell surface was done by flow cytometry analysis. Yeast cells were labeled with both the anti-EGFRvIII monoclonal antibody and chicken anti-Myc antibody the latter being used to monitor the level of expression of the fusion protein. Following a wash step, binding of the primary antibodies is probed by a two-color indirect fluorescence labeling using a specific mouse and chicken secondary antibodies for each of the primary antibody respectively.
(§5) To further characterize mAb epitopes within the EGFRvIII 15-37 region, an alanine scan of this region was performed, and modified fragments were expressed at the surface of the yeast. […] The resulting DNAs were expressed at the surface of the yeast and each anti-EGFRvIII mAbs was tested on the corresponding yeast mutant strain by flow cytometry analysis. The original Ala19 and Ala22 were not mutated. Thus, this assay determined the contribution of each amino acid(s) in mAb binding in comparison to the original wild-type fragment (SEQ ID NO:5) which is attributed the value of 100%.

[10] = target: T6, EGFRvIII amino acid residues 15 to 37 with Asp23 to Ala mutation, yeast-displayed (human, not fully specified); experiment: as above
T6 construct: The entry already carries the mutation
T6 peptide: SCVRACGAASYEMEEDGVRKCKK
From the text: as §4, §5

[11] = target: T7, EGFRvIII amino acid residues 15 to 37 with Gly31 to Ala mutation, yeast-displayed (human, not fully specified); experiment: as above
T7 construct: The entry already carries the mutation
T7 peptide: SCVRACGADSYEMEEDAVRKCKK
From the text: as §4, §5

[12] = target: T8, EGFRvIII amino acid residues 15 to 37 with Glu26 to Ala mutation, yeast-displayed (human, not fully specified); experiment: as above
T8 construct: The entry already carries the mutation
T8 peptide: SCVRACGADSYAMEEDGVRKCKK
From the text: as §4, §5

Binder | ELISA absorbance (405 nm) [1] [A405] | ELISA absorbance (405 nm) [2] [A405] | ELISA absorbance (405 nm) [3] [A405] | ELISA absorbance (405 nm) [4] [A405] | ELISA absorbance (405 nm) [5] [A405] | ELISA absorbance (405 nm) [6] [A405] | ELISA absorbance (405 nm) [7] [A405] | ELISA absorbance (405 nm) [8] [A405] | % of binding compared to the wild-type sequence [9] [%] | % of binding compared to the wild-type sequence [10] [%] | % of binding compared to the wild-type sequence [11] [%] | % of binding compared to the wild-type sequence [12] [%]
F269-3D12 anti-EGFRvIII monoclonal antibody (antibody, V domains shown, Mouse hybridoma IgG, tested as supernatant or Protein G purified mAb; also called 3D12-2) VH: EVQLQQSGPELVKPGSSVRISCKASGYTFTDYNMDWVKQSHGKSLEWIGTINPNNGGTSYNQKFKGKATLTVDKSSSTAYMELRSLTSEDSAVYYCARVRQLGLWFAYWGQGTLVTVSA VL: EIVLTQSPALMAASPGEKVTITCSVSSSISSSNLHWYQQKSETSPKPWIYGTSNLASGVPVRFSGSGSGTSYSLTISSMEAEDAATYYCQQWSSYPLTFGSGTKLEIK | 0.001 | 0.517 | 1.17 | 0.095 | 1.12 | 0.011 | 0.045 | 1.86 | 116 | 62.4 |  | 
F265-5B7 anti-EGFRvIII monoclonal antibody (antibody, V domains shown, Mouse hybridoma IgG, tested as supernatant or Protein G purified mAb; also called 5B7-2) VH: QIQLVQSGPELKKPGETVMISCKASGYSFTNYGMNWVKQAPEKDLKWMGWINTYTGESRYVDEFKGRFAFSLETSVSIVYLKINNLKNEDMATYFCARGPNFDVWGTGTTVTVSS VL: not shown | 0 | 0.623 | 1.14 | 0.008 | 0.874 | 0.002 | 0.046 | 1.67 |  |  | 98.9 | 140
